The results in this text go back to US20050003400A1 (Amgen, published 2005).

B1: recombinant human OPG [22-201]-Fc fusion protein (Fc fusion, UniProt O00300 22-201, looked up)
chain: ETFPPKYLHYDEETSHQLLCDKCPPGTYLKQHCTAKWKTVCAPCPDHYYTDSWHTSDECLYCSPVCKELQYVKQECNRTHNRVCECKEGRYLEIEFCLKHRSCPPGFGVVQAGTPERNTVCKRCPDGFFSNETSSKAPCRKHTNCSVFGLLLTQKGNATHDNICSGNSESTQKCGIDVTL
notes: construct described in U.S. Ser. No. 08/706,945; also called OPG-Fc; OPG Fc fusion protein; not shown: human IgG1 Fc domain
B2: chimeric ATAR extracellular domain-Fc fusion protein (Fc fusion, UniProt Q92956 39-202, looked up)
chain: LPSCKEDEYPVGSECCPKCSPGYRVKEACGELTGTVCEPCPPGTYIAHLNGLSKCLQCQMCDPAMGLRASRNCSRTENAVCGCSPGHFCIVQDGDHCAACRAYATSSPGQRVQKGGTESQDTLCQNCPPGTFSPNGTLEECQHQTKCSWLVTKAGAGTSSSHWV
notes: extracellular domain; also called sATAR-Fc; ATAR-Fc fusion protein; not shown: human IgG1 Fc domain
B3: murine OPG binding protein (full length, 316 aa, encoded by clone 32D-F3), on the cell surface (ligand)
chain: MRRASRDYGKYLRSSEEMGSGPGVPHEGPLHPAPSAPAPAPPPAASRSMFLALLGLGLGQVVCSIALFLYFRAQMDPNRISEDSTHCFYRILRLHENAGLQDSTLESEDTLPDSCRRMKQAFQGAVQKELQHIVGPQRFSGAPAMMEGSWLDVAQRGKPEAQPFAHLTINAASIPSGSHKVTLSSWYHDRGWAKISNMTLSNGKLRVNQDGFYYLYANICFRHHETSGSVPTDYLQLMVYVVKTSIKIPSSHNLMKGGSTKNWSGNSEFHFYSINVGGFFKLRAGEEISIQVSNPSLLDPDQDATYFGAFKVQDID
notes: Type II transmembrane protein; also called OPGbp; OPG-bp
B4: recombinant mouse OPG [22-194]-Fc fusion protein (Fc fusion, UniProt O08712 22-194, looked up)
chain: ETLPPKYLHYDPETGHQLLCDKCAPGTYLKQHCTVRRKTLCVPCPDHSYTDSWHTSDECVYCSPVCKELQSVKQECNRTHNRVCECEEGRYLEIEFCLKHRSCPPGSGVVQAGTPERNTVCKKCPDGFFSGETSSKAPCIKHTNCSTFGLLLIQKGNATHDNVCSGNREATQK
notes: also called OPG-Fc; not shown: Fc domain, detected with anti-human IgG

Experiment [1] concerns the target B3. As to the kind of experiment: staining of 32D cells with 5 ug/ml OPG-Fc and PE anti-human IgG, FACS.
The target of experiment [2] is B3. The experiment can be described thus: immunostaining of COS-7 cells transfected with 32D-F3. The method, then:
Arrayed pools of 32D cDNA expression library were individually lipofected into COS-7 cultures, then assayed for the acquisition of a cell surface OPG binding protein. To do this, COS-7 cells were plated at a density of 1×10⁶ per ml in six-well tissue culture plates (Costar), then cultured overnight in DMEM (Gibco) containing 10% FCS. Approximately 2 μg of plasmid DNA from each pool was diluted into 0.5 ml of serum-free DMEM, then sterilized by centrifugation through a 0.2 μm Spin-X column (Costar). Simultaneously, 10 μl of Lipofectamine (Life Technologies Cat # 18324-012) was added to a separate tube containing 0.5 ml of serum-free DMEM. The DNA and Lipofectamine solutions were mixed, and allowed to incubate at RT for 30 min. The COS-7 cell cultures were then washed with serum-free DMEM, and the DNA-lipofectamine complexes were exposed to the cultures for 2-5 hr at 37° C. After this period, the media was removed, and replaced with DMEM containing 10% FCS. The cells were then cultured for 48 hr at 37° C.
Using this approach, a total of approximately 300,000 independent 32D cDNA clones were screened, represented by 300 transfected pools of 1000 clones each. A single well was identified that contained cells which acquired the ability to be specifically decorated by the OPG-Fc fusion protein. […]

A further experiment concerns the target T1, purified human IgG1 Fc (human, UniProt P01857-1 104-330 = IgG part, limits assumed).
T1 construct: domain: Fc
As to the kind of experiment: staining of 32D cells, FACS. The method, then: Cell lines that grew as adherent cultures in vitro were treated using the following methods: Cells were plated into 24 well tissue culture plates (Falcon), then allowed to grow to approximately 80% confluency. The growth media was then removed, and the adherent cultures were washed with phosphate buffered saline (PBS) (Gibco) containing 1% fetal calf serum (FCS). […] The OPG-Fc fusion protein solution was discarded, and the cells were washed in PBS-FCS solution as described above. The cultures were then exposed to phycoeyrthrin-conguated goat F(ab′) anti-human IgG secondary antibody (Southern Biotechnology Associates Cat. # 2043-09) diluted into PBS-FCS. After a 30-45 min incubation at 0° C., the solution was discarded, and the cultures were washed as described above. The cells were then analyzed by immunofluorescent microscopy to detect cell lines which express a cell surface OPG binding protein.
Suspension cell cultures were analyzed in a similar manner with the following modifications: The diluent and wash buffer consisted of calcium- and magnesium-free phosphate buffered saline containing 1% FCS. […] The cells were then analyzed by fluorescence activated cell sorting (FACS) using a Becton Dickinson FACscan.

With B1, in experiment [1], the binding result is on record as “binds”. Regarding B2, the binding result in experiment [2] is listed as “no binding”. Turning to B3, the binding result in the experiment with purified human IgG1 Fc is recorded as “no binding”. For B4, in experiment [1], the binding result was “binds”.
